Results as given in patent US20170022287A1 (Chugai, published 2017).

Tests used:
[1] = target: full-length human CD137-Fc fusion protein (human); assay: ELISA, coated CD137-Fc protein 2 µg/mL, antibody 10 or 5 µg/mL, absorbance 620 nm; Non (uncoated well) 0.061
Protocol: (§1) Fragmented human CD137-Fc fusion proteins were diluted to 2 μg/mL in an aqueous sodium carbonate solution adjusted to pH9.6. Fifty μL of a diluted fragmented human CD137-Fc fusion protein was added individually to each well of a Nunc MaxiSorp flat-bottom 96 well plate (Nunc). This was allowed to stand at 4° C. overnight or longer, and then the plate was allowed to stand at room temperature for one hour so that the plate has the same temperature as the room temperature. The solution containing the fragmented human CD137-Fc fusion protein was removed by tilting, and each well was washed three times with 300 μL of Wash buffer (TBS containing 0.1% Tween20, TaKaRa). Next, 150 μL of blocking buffer (TBS containing 2% BSA) was added to each well, and this was allowed to stand for one hour or more. The blocking buffer was removed by tilting, and each well was washed three times with Wash Buffer in a similar manner to an earlier step. Then, 50 μL of an antibody solution prepared in advance by dilution with TBS to 10 μg/mL or 5 μg/mL was added to each well. This was subjected to a speed of 600 rpm or so for one hour at room temperature to bind the antibody to the immobilized antigen. […] 100 μL of a secondary antibody solution produced by 1000-fold dilution with TBS containing 0.1% Tween20 was added to each well. For the secondary antibody, ANTIBODY ALKALINE PHOSPHATASE CONJUGATE HUMAN IMMUNOGLOBULIN ABSORBED Goat Anti-Human Kappa Alkaline Phosphate from BIOSOURCE was used in the case of antibodies carrying a Kappa chain, and Human Lambda Light Chain Antibody; Goat anti-Human Lambda Light Chain Antibody Alkaline Phosphatase Conjugated from BETHYL LABORATORIES INC. was used in the case of antibodies carrying a Lambda chain. […] Color development was performed using the BluePhos Microwell kit from KPL. After the chromogenic reaction was stopped using the AP stop solution from KPL, the absorbance was measured at 620 nm on an absorptiometer.

[2] = target: T1, CRD1-2; assay: as above
T1 construct: also called fragmented human CD137-Fc fusion protein CRD1-2
Protocol: as §1

[3] = target: T2, CRD2-4; assay: as above
T2 construct: also called fragmented human CD137-Fc fusion protein CRD2-4
Protocol: as §1

[4] = target: T3, CRD2-3; assay: as above
T3 construct: also called fragmented human CD137-Fc fusion protein CRD2-3
Protocol: as §1

[5] = target: T4, CRD1; assay: as above
T4 construct: also called fragmented human CD137-Fc fusion protein CRD1
Protocol: as §1

[6] = target: T5, CRD3-4; assay: as above
T5 construct: also called fragmented human CD137-Fc fusion protein CRD3-4
Protocol: as §1

[7] = target: T6, CRD1-3; assay: as above
T6 construct: also called fragmented human CD137-Fc fusion protein CRD1-3
Protocol: as §1

[8] = target: full-length human CD137-Fc fusion protein (human); assay: ELISA, coated CD137-Fc protein 2 µg/mL, antibody 10 or 5 µg/mL; absorbance 620 nm divided by that of the uncoated well
Protocol: as §1

[9] = target: T1, CRD1-2; assay: as above
Protocol: as §1

[10] = target: T2, CRD2-4; assay: as above
Protocol: as §1

[11] = target: T3, CRD2-3; assay: as above
Protocol: as §1

[12] = target: T4, CRD1; assay: as above
Protocol: as §1

[13] = target: T5, CRD3-4; assay: as above
Protocol: as §1

[14] = target: T6, CRD1-3; assay: as above
Protocol: as §1

[15] = target: T1, CRD1-2; assay: ELISA, coated CD137-Fc protein 2 µg/mL, antibody 10 or 5 µg/mL, absorbance 620 nm; Non (uncoated well) 0.202
Protocol: as §1

[16] = target: T2, CRD2-4; assay: as above
Protocol: as §1

[17] = target: T3, CRD2-3; assay: as above
Protocol: as §1

[18] = target: T4, CRD1; assay: as above
Protocol: as §1

[19] = target: T5, CRD3-4; assay: as above
Protocol: as §1

[20] = target: T6, CRD1-3; assay: as above
Protocol: as §1

[21] = target: full-length human CD137-Fc fusion protein (human); assay: ELISA, coated CD137-Fc protein 2 µg/mL, antibody 10 or 5 µg/mL, absorbance 620 nm; Non (uncoated well) 0.051
Protocol: as §1

[22] = target: T1, CRD1-2; assay: as above
Protocol: as §1

[23] = target: T2, CRD2-4; assay: as above
Protocol: as §1

[24] = target: T3, CRD2-3; assay: as above
Protocol: as §1

[25] = target: T4, CRD1; assay: as above
Protocol: as §1

[26] = target: T5, CRD3-4; assay: as above
Protocol: as §1

[27] = target: T6, CRD1-3; assay: as above
Protocol: as §1

T5 sequence (chain, as listed by the source limits assumed): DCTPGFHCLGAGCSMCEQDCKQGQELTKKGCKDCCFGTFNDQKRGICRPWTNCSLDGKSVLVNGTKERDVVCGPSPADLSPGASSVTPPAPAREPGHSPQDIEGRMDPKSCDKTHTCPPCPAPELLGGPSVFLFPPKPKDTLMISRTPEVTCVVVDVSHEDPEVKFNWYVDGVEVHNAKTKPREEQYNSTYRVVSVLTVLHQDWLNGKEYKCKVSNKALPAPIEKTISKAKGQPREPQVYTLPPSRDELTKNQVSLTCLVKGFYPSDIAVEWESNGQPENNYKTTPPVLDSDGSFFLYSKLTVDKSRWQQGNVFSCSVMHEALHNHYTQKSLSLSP
T2 sequence (chain, as listed by the source limits assumed): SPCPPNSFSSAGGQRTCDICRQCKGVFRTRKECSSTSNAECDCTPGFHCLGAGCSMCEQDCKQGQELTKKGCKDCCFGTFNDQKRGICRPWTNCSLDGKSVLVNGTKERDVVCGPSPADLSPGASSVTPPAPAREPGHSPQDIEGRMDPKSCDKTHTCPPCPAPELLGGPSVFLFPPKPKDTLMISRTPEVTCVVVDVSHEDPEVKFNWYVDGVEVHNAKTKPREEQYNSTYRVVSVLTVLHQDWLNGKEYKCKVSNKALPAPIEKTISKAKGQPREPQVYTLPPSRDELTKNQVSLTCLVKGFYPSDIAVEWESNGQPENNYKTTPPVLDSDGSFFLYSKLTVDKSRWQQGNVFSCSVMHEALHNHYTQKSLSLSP
T1 sequence (chain, as listed by the source limits assumed): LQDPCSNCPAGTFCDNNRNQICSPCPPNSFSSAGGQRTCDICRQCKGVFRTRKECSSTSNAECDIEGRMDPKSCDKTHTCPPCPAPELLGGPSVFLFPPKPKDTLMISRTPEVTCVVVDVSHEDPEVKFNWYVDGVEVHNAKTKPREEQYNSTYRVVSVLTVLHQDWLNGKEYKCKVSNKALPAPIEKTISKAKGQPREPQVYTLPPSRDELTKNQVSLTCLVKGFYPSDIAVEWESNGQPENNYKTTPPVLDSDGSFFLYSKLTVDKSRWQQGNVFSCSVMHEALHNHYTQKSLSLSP
full-length human CD137-Fc fusion protein (human), sequence (chain, as listed by the source limits assumed): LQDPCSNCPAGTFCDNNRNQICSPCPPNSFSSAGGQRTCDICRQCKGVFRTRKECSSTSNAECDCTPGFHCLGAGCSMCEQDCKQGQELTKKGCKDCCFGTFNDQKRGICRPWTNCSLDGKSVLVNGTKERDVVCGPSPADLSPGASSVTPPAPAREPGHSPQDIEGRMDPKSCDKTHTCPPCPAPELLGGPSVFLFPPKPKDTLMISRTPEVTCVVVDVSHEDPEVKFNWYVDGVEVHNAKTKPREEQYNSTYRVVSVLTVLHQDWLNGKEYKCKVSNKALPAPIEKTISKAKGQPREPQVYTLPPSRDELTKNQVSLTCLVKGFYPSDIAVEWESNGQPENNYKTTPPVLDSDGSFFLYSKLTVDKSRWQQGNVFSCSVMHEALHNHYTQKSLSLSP
T3 sequence (chain, as listed by the source limits assumed): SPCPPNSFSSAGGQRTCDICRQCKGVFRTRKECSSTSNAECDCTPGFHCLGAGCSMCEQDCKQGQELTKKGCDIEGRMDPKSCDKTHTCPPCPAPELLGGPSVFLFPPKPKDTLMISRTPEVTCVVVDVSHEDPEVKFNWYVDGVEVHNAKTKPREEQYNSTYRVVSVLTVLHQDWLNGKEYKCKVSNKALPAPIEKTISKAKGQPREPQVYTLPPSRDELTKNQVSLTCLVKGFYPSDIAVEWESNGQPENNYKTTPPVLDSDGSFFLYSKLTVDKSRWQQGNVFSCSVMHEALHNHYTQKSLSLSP
T4 sequence (chain, as listed by the source limits assumed): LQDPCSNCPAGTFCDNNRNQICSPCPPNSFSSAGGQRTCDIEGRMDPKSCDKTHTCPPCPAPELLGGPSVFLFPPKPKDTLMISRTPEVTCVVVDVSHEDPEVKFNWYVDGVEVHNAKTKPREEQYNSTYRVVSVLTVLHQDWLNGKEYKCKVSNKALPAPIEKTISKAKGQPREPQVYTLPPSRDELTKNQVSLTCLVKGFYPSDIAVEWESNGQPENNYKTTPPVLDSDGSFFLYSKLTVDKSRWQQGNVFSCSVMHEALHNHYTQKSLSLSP
T6 sequence (chain, as listed by the source limits assumed): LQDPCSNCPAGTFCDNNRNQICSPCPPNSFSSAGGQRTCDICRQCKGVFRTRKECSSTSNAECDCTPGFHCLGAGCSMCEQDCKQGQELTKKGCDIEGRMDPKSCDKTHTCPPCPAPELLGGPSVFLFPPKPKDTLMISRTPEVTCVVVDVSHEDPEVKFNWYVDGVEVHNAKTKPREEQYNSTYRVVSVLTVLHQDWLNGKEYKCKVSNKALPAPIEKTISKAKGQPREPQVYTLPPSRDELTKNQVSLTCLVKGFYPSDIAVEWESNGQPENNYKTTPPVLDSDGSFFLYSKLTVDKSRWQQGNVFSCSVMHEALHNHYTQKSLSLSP

B1: R3 (antibody, V domains shown)
VH: EVQLVQSGAEVKKPGASVKVSCKASGYTFTSYYTHWVRQAPGQGLEWMGIINPSGGSTSYAQKFQGRVTMTRDTSTSTVYMELSSLRSEDTAVYYCARGAPEYSSSSDYWGQGTMVTVSS
VL: QSALTQPASVSGSPGQSITISCTGTSSDVGGYNFVSWYQQHPGKAPKLMIYDVSKRPSGVSTRFSGSKSGNTASLTISGLQAEDEADYYCNSYTTSSTRWMFGGGTKVTVL
notes: Naive library clone; Fab on phage in the phage ELISA
- ELISA color development level [1]: 2.06
- ELISA color development level [2]: 1.74
- ELISA color development level [3]: 0.0875
- ELISA color development level [4]: 0.0995
- ELISA color development level [5]: 0.103
- ELISA color development level [6]: 0.077
- ELISA color development level [7]: 1.12
- Ratio with respect to Non-Coating [8]: 33.7
- Ratio with respect to Non-Coating [9]: 28.5
- Ratio with respect to Non-Coating [10]: 1.4
- Ratio with respect to Non-Coating [11]: 1.6
- Ratio with respect to Non-Coating [12]: 1.7
- Ratio with respect to Non-Coating [13]: 1.3
- Ratio with respect to Non-Coating [14]: 18.4

B2: R2 (antibody, V domains shown)
VH: EVQLQESGPGLVKPSETLSLTCTVSGGSISSSSYYWGWIRQPPGKGLEWIGSIHYTGSTYYNPSLKSRVTISVDTSKNQFSLKLSSVTAADTAVYYCARLNPSIAARPGAFDIWGQGTMVTVSS
VL: QSVLTQPPSVSAAPGQKVTISCSGSSSNIANNFVSWFQQLPGTAPKLLIYDNNKRPSGIPDRFSGSKSGTSATLGITGLQTGDEADYYCGTWDRSLSAGVFGGGTKVTVL
notes: as for B1
- ELISA color development level [15]: 0.202
- ELISA color development level [16]: 0.15
- ELISA color development level [17]: 0.19
- ELISA color development level [18]: 0.226
- ELISA color development level [19]: 0.11
- ELISA color development level [20]: 0.226
- Ratio with respect to Non-Coating [9]: 1
- Ratio with respect to Non-Coating [10]: 0.7
- Ratio with respect to Non-Coating [11]: 0.9
- Ratio with respect to Non-Coating [12]: 1.1
- Ratio with respect to Non-Coating [13]: 0.5
- Ratio with respect to Non-Coating [14]: 1.1

B3: R4 (antibody, V domains shown)
VH: EVQLVQSGAEVKKPGASVKVSCKASGYTFSGYYMHWVRQAPGQGLEWMGWINPNSGDTNYAQNFQGRVTMTRDTSISTAYMELSRLRSDDTAVYYCARDGTGYSSSPDYWGQGTPVTVSS
VL: QSALTQPASVSGSPGQSITISCTGTSSDVGGYNYVSWYQQHPGKAPKLMIYDVSNRPSGVSNRFSGSKSGNTASLTISGLQAEDEADYYCSSYTSSSTRWVFGGGTKLTVL
notes: as for B1
- ELISA color development level [21]: 1.89
- ELISA color development level [22]: 1.49
- ELISA color development level [23]: 0.065
- ELISA color development level [24]: 0.0585
- ELISA color development level [25]: 0.0635
- ELISA color development level [26]: 0.056
- ELISA color development level [27]: 0.779
- Ratio with respect to Non-Coating [8]: 37.1
- Ratio with respect to Non-Coating [9]: 29.3
- Ratio with respect to Non-Coating [10]: 1.3
- Ratio with respect to Non-Coating [11]: 1.1
- Ratio with respect to Non-Coating [12]: 1.2
- Ratio with respect to Non-Coating [13]: 1.1
- Ratio with respect to Non-Coating [14]: 15.3
